In paper PMC10524254 one finds localisation_or_trafficking data, which are given here for four substances.

Where two headings read alike, the source gives them in different places.

Regarding IgM: N209Q, the localisation_or_trafficking entry (N-glycosylation at N209) is reported as “no change”.

CD79B: N73Q: the localisation_or_trafficking result (N-glycosylation at N73) is reported as “no change”.

Regarding CD79B: N101Q, under “N-glycosylation at N101”, the localisation_or_trafficking result is “no change”.

On to CD79A: N112Q, for which the localisation_or_trafficking result (N-glycosylation at N112) was “no change”.
